This is an account of results in paper PMC2646082.

Like-named read-outs stand apart in the source and are kept apart here.

Common to all, as to test: ITC
Series [1] has as its target T1, HIV-1 nucleocapsid protein (NC) (HIV-1 NL4-3, UniProt P12493 378-432).
Series [2] deals with T1, HIV-1 nucleocapsid protein (NC). This is another data set of the same source.
Series [3] has the same target. This is another data set of the same source.
Series [4] has the same target. The source holds these as a separate data set.
The target is the same in series [5]. The source holds these as a separate data set.
Series [6] has the same target. The source holds these as a separate data set.
Series [7] shares this target. The source holds these as a separate data set.
Series [8] shares this target. This is another data set of the same source.

The molecule UGUGCCCGUCU (ssRNA) [U5 (U5GGG, native)] came in with a Kd in series [1] of 122 ± 10 nM.

In series [2], UUUGCCCGUCU (ssRNA) [U5UGG (G106U)] showed a Kd of 267 ± 20 nM. As to UGUUCCCUUCU (ssRNA) [U5GUU (G108U;G112U)], in series [3], the affinity, expressed as Kd, was 880 ± 91 nM. With UGUUCCCGUCU (ssRNA) [U5GUG (G108U)], in series [4], the Kd was 239 ± 20 nM.

For UUUUCCCUUCU (ssRNA) [U5UUU (G106U;G108U;G112U)], the binding result in series [5] is on record as “no binding”. In series [6], UUUGCCCUUCU (ssRNA) [U5UGU (G106U;G112U)] had a Kd of 812 ± 91 nM. As to UUUUCCCGUCU (ssRNA) [U5UUG (G106U;G108U)], in series [7], the Kd turned out to be 547 ± 55 nM. Consider UGUGCCCUUCU (ssRNA) [U5GGU (G112U)], for which the Kd in series [8] turned out to be 81 ± 8 nM.

What is called Kd is the free concentration of one partner at which half of the binding sites on the other are occupied at equilibrium, for simple one-to-one binding. A higher Kd goes with a looser complex.
